# Test results from US20160355591A1 (published 2016).
# B1: hL243γ4P (IMMU-114; humanized L243, IgG4/K isotype with Ser241Pro hinge mutation) (antibody, V domains shown)
# VH: QVQLQQSGSELKKPGASVKVSCKASGFTFTNYGMNWVKQAPGQGLKWMGWINTYTREPTYADDFKGRFAFSLDTSVSTAYLQISSLKADDTAVYFCARDITAVVPTGFDYWGQGSLVTVSS
# VL: DIQLTQSPSSLSASVGDRVTITCRASENIYSNLAWYRQKPGKAPKLLVFAASNLADGVPSRFSGSGSGTDYTFTISSLQPEDIATYYCQHFWTTPWAFGGGTKLQIKR
# notes: Same V regions as hL243; also called hL243g4P; hL243gamma4P
# B2: mL243 (murine L243 anti-HLA-DR monoclonal antibody, IgG2a, ATCC HB55) (antibody, V domains shown)
# VH: QIQLVQSGPELKKPGETVKISCKASGFTFTNYGMNWVKQAPGKGLKWMGWINTYTREPTYADDFKGRFAFSLETSASTAYLQINNLKNEDTAKYFCARDITAVVPTGFDYWGQGTTLTVSS
# VL: DIQMTQSPASLSVSVGETVTITCRASENIYSNLAWYRQKQGKSPQLLVFAASNLADGVPSRFSGSGSGTQYSLKINSLQSEDFGDYYCQHFWTTPWAFGGGTNLEIKR
# notes: Murine IgG2a from hybridoma ATCC HB55; also called mL234; L234
# Tests used:
# [1] = molecular target: T1, HLA-DR (human leukocyte antigen-DR) on human lymphoma and leukemia cells and human lymphocytes (human, UniProt P01903 26-254; P01911 30-266); assay: competition cell-binding assay on human lymphoma cells; reference mL243
# T1 construct: whole, on cells; Natural antigen on Raji, Daudi, Ramos, Namalwa and other cell lines; also called cell surface antigen (Ag) recognized by L243
# Description: (§1) Unbound Abs were removed by washing the cells in PBS. The radioactivity associated with cells was determined after washing.
# [2] = molecular target: T1, HLA-DR (human leukocyte antigen-DR) on …; assay: competition cell-binding assay, unlabeled antibody against 125I-labeled L243 antibody on human lymphoma cells (FIG. 6: Raji)
# Description: as §1
# [3] = molecular target: T1, HLA-DR (human leukocyte antigen-DR) on …; assay: direct cell surface saturation binding of 125I-labeled antibody to Daudi cells, 4 C, Scatchard plot; apparent dissociation constant
# Description: The cell-associated radioactivity was counted, specific binding of radiolabeled antibody to the cell surface antigen calculated, and Scatchard plot analysis was then applied to determine the maximum number of binding sites per cell and the apparent antigen-binding affinity constant.
# To measure specific cell surface antigen binding, two sets of cells were prepared and used in the binding assay to estimate the non-specific and total binding of radioactivities, respectively. The cells for non-specific binding were pre-incubated with excess amount of unlabled Ab to block all surface antigen sites prior to adding the radiolabeled antibody, while those for total binding were pre-incubated in PBS. […] The cell-associated radioactivity was counted. The specific cell surface binding of the radiolabeled antibody at a given concentration of radiolabeled antibody was calculated as: the counts of total binding minus the counts of non-specific binding.
Binder,fold stronger binding avidity than mL243 [1] [fold],EC50 [2] [nM],Kd [3] [nM]
B1,~2,~7,2.6
B2,–,~16.5,14
